Measurements reported in publication PMC9288967.

Molecular target: SARS-CoV-2 spike RBD (wild type) (SARS-CoV-2) (UniProt P0DTC2)
Experiment: BLI

mNb6(108FFY) (VHH)
Kd: 0.91 nM
